In this assay the target is T1, human RetL2 (insert of clone DSW240) expressed on 293/EBNA cells (human, UniProt O00451 22-444).
T1 construct: no cleavage sites are stated; also called retL2 expression plasmid
T1 sequence: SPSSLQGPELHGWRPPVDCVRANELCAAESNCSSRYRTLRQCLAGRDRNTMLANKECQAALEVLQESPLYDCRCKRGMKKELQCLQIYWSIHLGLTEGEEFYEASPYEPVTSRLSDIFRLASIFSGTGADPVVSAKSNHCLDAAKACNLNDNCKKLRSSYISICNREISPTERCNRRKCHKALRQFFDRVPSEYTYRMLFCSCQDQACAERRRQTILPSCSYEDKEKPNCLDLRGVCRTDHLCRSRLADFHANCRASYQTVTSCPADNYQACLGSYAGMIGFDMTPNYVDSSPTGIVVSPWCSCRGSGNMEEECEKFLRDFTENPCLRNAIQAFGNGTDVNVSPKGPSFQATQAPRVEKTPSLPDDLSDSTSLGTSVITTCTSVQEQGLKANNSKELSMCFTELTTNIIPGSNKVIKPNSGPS
The assay is described as follows: staining of 293/EBNA cells transfected with the insert of clone DSW240. As for the experimental part:
Plasmid DNAs (the retL2 expression plasmid, a retL1 expression plasmid for a positive control, and an expression plasmid containing an unrelated protein for a negative control) are transfected into 293/EBNA cells (8 ×10^5 on a 60 mm plate) using the lipofection method. After 48 hr, the cells are washed two times with HBHA buffer (0.5 mg/ml BSA, 0.1% NaN_3, 20 mM HEPES (pH 7.0)) and incubated with 20 ug/ml rat Ret/IgG in Tris-buffered saline plus 1 mM MgCl_2 and CaCl_2 for 60–90 min at room temperature. Following this incubation, the cells are washed four times with HBHA buffer and then fixed with 60% acetone/3% formaldehyde/20 mM HEPES (pH 7.0) for 30 sec. […]

B1: rat Ret/IgG fusion protein (Fc fusion)
chain: EAPLGLYFSRDAYWERLYVDQPAGTPLLYVHALRDAPGEVPSFRLGQYLYGVYRTRLHENDWIHIDAGTGLLYLNQSLDHSSWEQLSIRNGGFPLLTVFLQVFLGSTAQREGECHWPGCARVYFSFINDTFPNCSSFKARDLCTPETGVSFRIRENRPPGTFYQFRMLPVQFLCPNISVKYKLLEGDGLPFRCDPDCLEVSTRWALDRELQEKYVLEAECAVAGPGANKEKVAVSFPVTVYDEDDSPPTFSGGVGTASAVVEFKRKEGTVVATLQVFDADVVPASGELVRRYTSTLLSGDSWAQQTFRVEHTPNETLVQSNNNSVRATMHNYKLVLNRSLSISESRVLQLVVLVNDSDFQGPGSGVLFLHFNVSVLPVTLNLPMAYSFPVNRRARRYAQIGKVCVENCQEFSGVSIQYKLQPSSTNCSALGVVTSTEDTSGTLYVNDTEALRRPECTELQYTVVATDRQTRRQTQASLVVTVEGTYIAEEVGCPKSCAVNKRRPECEECGGLGSPTGRCEWRQGDGKGITRNFSTCSPSTRTCPDGHCDALESRDINICPQDCLRGPIVGGHERGERQGIKAGYGICNCFPDEKKCFCEPEDSQGPLCDALCRT
notes: Made in COS or CHO cells and purified on Protein A; also called Ret/Ig fusion protein; soluble Ret/IgG fusion protein; not shown: Fc portion of human IgG1 (part of the Fc domain, 700 bp Sal1 fragment from plasmid 2-4, originally from pSAB144)
In the case of B1, the binding result is “binds”.
